This note sets out measurements from article doi:10.1101/2022.08.07.503104.

The Kd is the free concentration of one partner at which half of the binding sites on the other are occupied at equilibrium, for simple one-to-one binding.

The target in experiment [1] is Recombinant Tat (86 residues, BH10 isolate) (HIV-1 (BH10 isolate)) (UniProt P69697). Put plainly: SPR. (SPR reads the build-up and loss of mass on a sensor chip optically.)
Experiment [2] deals with Tat-CypA complex formed beforehand (HIV-1 (BH10 isolate) | human) (UniProt P69697). In words: SPR.
The target is the same in experiment [3]. Put plainly: MST.
The target in experiment [4] is Recombinant human CypA (human) (UniProt P62937). In words: MST.
For experiment [5], the target named is CypA-CA complex formed beforehand (human | HIV-1) (UniProt P62937). Put plainly: MST.

For the substance “CypA-CA complex formed beforehand (from UniProt P62937 1-165)”, in experiment [1], the Kd turned out to be 95 nM.

On to “Recombinant HIV-1 capsid protein (CA) (natural protein)”, for which the results for the Kd in experiment [2], in experiment [3] and in experiment [4] were 110 nM, 5500 nM and 8300 nM, respectively.

On to “Recombinant Tat (86 residues, BH10 isolate) (from UniProt P69697 1-86) (natural protein)”, for which the Kd in experiment [5] amounted to 55 nM.
